Publication PMC7509637 (Advanced Science, 2020)
Values joined by “and” are separate entries in the source; they are usually repeats but may differ in a detail not shown here. Equal values may be shown once. “Also recorded” adds a separate entry of the source.

Key:
Aβ [1] = target: T1, Aβ (Homo sapiens, UniProt P05067); assay: Circular dichroism spectroscopy, secondary structure; conditions: 37 °C, CD; for β-sheet content: Contin/reference set 4, n = 3; for random coil content: n = 3
T1 construct: purchased Anaspec Inc
Method: Solutions of 200 µL, at similar molar ratios as for ThT assay, were prepared and incubated at 37 °C. CD spectra for different samples at 0, 12 and 48 h were measured with a CD spectrophotometer (Jasco) from 190 to 240 nm (1 nm step size). The percentage secondary structure was calculated by the CD data via Dichroweb analysis with parameters of Contin/reference set 4.^[ ^95 ^]

Aβ [2] = target: T1, Aβ; assay: ThT assay of Aβ with P. aeruginosa biofilm fragments; format: biochemical; conditions: Aβ 50 × 10^−6 M ± biofilm fragments 5 × 10^−6 M (protein content), 37 °C, Figure S14
Method: P. aeruginosa biofilm fragments were generated by incubating fresh subcultures of bacteria (wild‐type reference strain PAO1) in cation‐adjusted Mueller‐Hinton broth (CAMHB) overnight in a 96‐well plate. After 48 h of incubation, the planktonic bacteria were pipetted out from the culture and replaced with fresh PBS (pH 7.4). The surface pellicle biofilm and ring biofilm attached to the well walls were scooped out and dispersed in PBS. The separated biofilm chunks were purified from the embodied bacteria by vortexing (10 min) with 20 µm glass beads and then repeated centrifugal washing (3 min, 2000 g) with PBS (pH 7.4). The biofilm containing supernatant was collected, concentrated, and adjusted to the concentration of 5 mg mL^−1 in deionized water. The concentration was adjusted with respect to the protein contents of biofilm via the BCA assay. […]
Aβ (Anaspec Inc., purity ≥ 95%) was dissolved in 100 µL of hexafluoro‐2‐propanol (HFIP) and incubated at room temperature for 3 h. […] The ThT fluorescence (excitation: 445 nm/ emission: 485 nm) was recorded at specified time intervals for 50 h. Kinetic parameters (rate constant k, half‐life t 1/2 and lag‐time) were calculated as described.^[ ^94 ^] Briefly, kinetic curves were fitted to a sigmoidal curve =y0+ymax−y0/1+e^−(t−t1/2)k , where y 0 and y max are initial and final ThT fluorescence values, allowing us to calculate lag time = t 1/2 − 2/k.

Aβ fibrils = assay: AFM of fibrils, FiberApp statistical analysis; conditions: compared with the control
Method: Aβ incubated in the presence or absence of FapCS, FapC monomers, FapC fibrils or bLgS were subjected to TEM imaging. After incubation for 12 h, a drop of sample was applied on a glow‐discharged carbon‐coated copper grid. After 1 min, the sample was blotted and then negatively stained with uranyl acetate (1%) for 30 s. The dried grid was then imaged with a Technei F20 TEM at 200 kV. For AFM, a drop of sample was placed on freshly cleaved mica surface and rinsed with water after 2 min and dried with pressurized air. The sample was scanned with an AFM (Nanoscope VIII Multimode Scanning Force Microscopes, Bruker), covered with an acoustic hood to minimize the vibrational noise. Images were acquired under the tapping mode with a silicon nitride cantilever (Bruker). AFM images were processed with Nanoscope Analysis 1.5 software to flatten the background and to calculate the statistical parameters.

Aβ amyloid fibrils = assay: STED microscopy of FapCS with Aβ fibrils; conditions: FapCS labeled with Alexa 647, ThT-labeled Aβ fibrils, 12 h
Method: STED microscopy was employed to study the interaction of FapCS with Aβ. FapCS was labeled with Alexa 647 NHS ester via carbodiimide coupling reaction (1:1 molar ratio) in PBS (pH 8) for a duration of 5 h. The labeled fragments were purified via centrifugal filters ([…]). Labeled FapCS was incubated with Aβ at the same molar ratio as for the ThT assay. After 12 h of incubation, the FapCS‐seeded Aβ fibrils were incubated with ThT dye (100 × 10^−6 M) for 30 min to label the Aβ backbone and then purified via centrifugal filters ([…]). A drop of 20 µL of the sample was placed on a poly‐L‐lysine coated coverslip, flipped on a glass slide and then imaged under STED microscope. Alexa and ThT fluorescence were imaged under the excitations of 647 and 488 nm and emissions of 665 and 525 nm, respectively.

adult zebrafish = assay: Cognitive memory function of adult zebrafish (arena 2 avoidance); format: in vivo, zebrafish (AB, Danio rerio); conditions: FapCS alone
Method: Adult zebrafish (10 months) were employed for the study. Prior to microinjection, adult zebrafish were anesthetized by placing them in a beaker filled with ice‐chilled tricaine (0.01% in Holtfreter's buffer) for 20 s. […] The needle penetrated between left and right telencephalon for not more than 1 mm and injection volume was 1 µL. The syringe was washed with ethanol and PBS in between the injections. The injections were made under a stereomicroscope and fish were held in place with forceps. After microinjection, the fish was placed back in the water tank for recovery.
The behavioral pathology of the adult fish was observed after 4 d and 2 weeks of microinjection. The behavioral pathology of movement frequency and traveled distance was recorded with a zebrabox (Viewpoint) in a 1 L swimming tank. For cognitive function test, the tank was hypothetically divided into two parts of arena 1 and arena 2, and arena 2 was labeled by pasting a red paper at the bottom of the tank. The behavior of the untreated fish was recorded as positive control, in both arenas. […] After training, the swimming behavior of the fish was recorded in whole tank and then analyzed for arena 1 versus arena 2 with software EthnoVision X1.
The observations were made for 1 min with three fish per samples. […] Movement trajectories were also recorded with the instrument's camera.

Molecule | β-sheet content (Aβ [1]; 0 h) | random coil content (Aβ [1]; 0 h) [%] | random coil content (Aβ [1]; 12 h) [%] | β-sheet content (Aβ [1]; 48 h) | lag time (Aβ [2]) [h] | rise in fibrillar diameter of Aβ upon seeding vs control (Aβ fibrils) [%] | interaction with Aβ fibrils by STED (Aβ amyloid fibrils) | cognitive memory function (in words), time not stated (adult zebrafish)
amyloid beta [Aβ] | 28% and 28 ± 9% | 34 ± 6 | 28 ± 1.5 | 54% and 54 ± 4.5% | 23 | – | – | –
FapCS: FapC seeds obtained by sonication of mature FapC fibrils (P. aeruginosa) (protein) GNEGGWHPPKPNPQSNNKGGATALVVDTQQNYNNKVSNFGTLNNASVSGSIKDASGNVGVNVAAGDNNQQANAAALASADASFVFGTATASTSVLQSGYGNTLNNYSNPNTASLSNSANNVSGNLGVNVAAGNFNQQKNDLAAAVSNGQYSTAGSAASQTSTGNTTVNSANYAYGGTYVSLKLNADGSYKGTSDQIGDVYLDTWEGQTHPGGSNTGHIDVDSQAQGAKDLNHDGGAFAFKEKGDVDLKGTVSGFIPAIVGFKTPVTNNASLSNSLQNVSGNVGVNIAAGGGNQQSNSLSIAAGCSSCPAGGESLGF | – | – | – | – | – | 37 | adsorption of FapCS (labeled with Alexa 647) onto Aβ amyloid fibrils; also recorded: intercalation of FapCS inside the Aβ fibrils; also recorded: adsorbed onto or integrated into Aβ fibrils | did not induce any cognitive deficiencies
